# Measurements reported in article PMC6965710.
# Residue numbers refer to the chain shown, from its start.
# Experiments:
# Assay in all cases: EMSA
# Conditions in all cases: 8-oxo-7,8-dihydroguanosine at positions 3,7,11,15,19,23
# [1] = target: T1, PNPase GFT S76G;F78T (Escherichia coli K12) (UniProt P05055)
# T1 sequence: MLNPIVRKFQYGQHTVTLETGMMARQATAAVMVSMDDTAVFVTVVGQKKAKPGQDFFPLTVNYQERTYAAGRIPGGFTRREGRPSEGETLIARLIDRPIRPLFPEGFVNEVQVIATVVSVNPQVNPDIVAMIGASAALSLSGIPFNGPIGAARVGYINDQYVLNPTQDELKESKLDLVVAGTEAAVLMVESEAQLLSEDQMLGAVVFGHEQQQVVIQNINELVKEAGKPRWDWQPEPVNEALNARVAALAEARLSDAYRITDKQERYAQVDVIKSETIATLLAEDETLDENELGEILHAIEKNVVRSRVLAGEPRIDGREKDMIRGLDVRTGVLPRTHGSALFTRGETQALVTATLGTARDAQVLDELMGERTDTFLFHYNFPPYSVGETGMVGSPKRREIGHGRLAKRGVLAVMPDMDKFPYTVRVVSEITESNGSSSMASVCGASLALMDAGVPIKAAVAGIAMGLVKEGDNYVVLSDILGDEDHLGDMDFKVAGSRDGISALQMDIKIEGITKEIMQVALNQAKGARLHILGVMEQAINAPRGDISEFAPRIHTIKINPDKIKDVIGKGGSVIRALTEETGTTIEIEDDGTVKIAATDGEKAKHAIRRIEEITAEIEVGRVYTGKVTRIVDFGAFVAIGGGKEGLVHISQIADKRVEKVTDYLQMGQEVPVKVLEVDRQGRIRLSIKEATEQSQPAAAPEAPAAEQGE
# [2] = target: T2, PNPase NFH S76N;F78H (Escherichia coli K12) (UniProt P05055)
# T2 sequence: T1 sequence with G76N, T78H
# [3] = target: T3, PNPase NYM S76N;F77Y;F78M (Escherichia coli K12) (UniProt P05055)
# T3 sequence: T1 sequence with G76N, F77Y, T78M
# [4] = target: T4, PNPase wild type (SFF) (Escherichia coli K12) (UniProt P05055)
# T4 sequence: T1 sequence with G76S, T78F
sequence,measurement,setting,value
NNGNNNGNNNGNNNGNNNGNNNGN [8-oxoG RNA 24-mer [NN(8-oxoG)N]6],binding signal (Kd ratio unmodified/8-oxoG (selectivity)),[1],2.3
same,binding signal (Kd ratio unmodified/8-oxoG (selectivity)),[2],2.5
same,binding signal (Kd ratio unmodified/8-oxoG (selectivity)),[3],2.8
same,binding signal (Kd ratio unmodified/8-oxoG (selectivity)),[4],1.8
